Data reported in patent EP4588939A1 (Universitat de Barcelona, dated 2025).

T1: human IL13Rα2 (interleukin-13 receptor subunit alpha-2) (human, UniProt Q14627 27-380)
T1 construct: whole, on cells; also called IL13Ra2
T1 sequence (looked up): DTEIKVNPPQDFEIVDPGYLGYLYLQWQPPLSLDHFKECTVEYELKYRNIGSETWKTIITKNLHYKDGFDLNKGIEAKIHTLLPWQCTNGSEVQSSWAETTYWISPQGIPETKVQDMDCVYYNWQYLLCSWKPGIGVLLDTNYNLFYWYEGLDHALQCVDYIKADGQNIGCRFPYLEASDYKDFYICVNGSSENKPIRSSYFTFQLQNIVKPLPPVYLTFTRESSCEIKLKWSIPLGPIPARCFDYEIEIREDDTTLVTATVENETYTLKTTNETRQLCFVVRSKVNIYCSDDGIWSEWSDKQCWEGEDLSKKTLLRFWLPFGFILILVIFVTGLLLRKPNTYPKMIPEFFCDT

B1: 46A murine anti-IL13Rα2 monoclonal antibody (antibody, V domains shown)
VH: QVQLKQSGPGLVQPSQSLSITCTVSGFSITKYGVHWVRLSPGKGLEWLGVIWSGGSTDYNAAFISRLNISKDNSKSQVFFKMNSLQANDTAIYYCARDFGDTMDYWGQGTSVTVSS
VL: QIVLTQSPAIMSASLGERVTMTCTASSSVTSSYLHWYQQKPGSSPKLWIFSTSNLASGVPARFSGSGSGTSYSLTISSMEAEDAATYYCHQYHRSPLTFGAGTKLELK
notes: Tested as hybridoma supernatant; also called IL13Rα2_46A; clone 46A
B2: 82B murine anti-IL13Rα2 monoclonal antibody (antibody, V domains shown)
VH: QVQLKQSGPGLVQPSQSLSITCTVSGFSLTSYGVHWVRQSPGKGLEWLGVIWSGGSTDYNAAFISRLSISKDNSKSQVFFKMNSLQANDTAIYYCARDRYDAFDYWGQGTTLTVSS
VL: QIVLTQSPAIMSASLGERVTMTCTASSSVSSSYLHWYQQKPGSSPKLWIYSTSNLASGVPARFSGSGSGTSYSLTISSMEAEDAATYYCHQYHRSPLTFGAGTKLELK
notes: Tested as hybridoma supernatant; also called IL13Rα2_82B; clone 82B
B3: 6A murine anti-IL13Rα2 monoclonal antibody (antibody, V domains shown)
VH: EVQLQQSGPELVKPGASVKISCKTSGYTFTEYTMHWVKQSHGKSLEWIGIINPNNGGTNYNQKFKGKATLTVDKSSSTAYMELRSLTSEDSAVYYCARPSATHYFDYWGQGTTLTVSS
VL: DIKMTQSPSSMYASLGERVTITCKASQDIKSYLSWFQQKPGKSPKTLIYRANRLVDGVPSRFSGSGSGQDYSLTISSLEYEDMGIYYCLQYDEFPLTFGAGTKLELK
notes: Tested as hybridoma supernatant; also called IL13Rα2_6A; clone 6A
B4: 143A murine anti-IL13Rα2 monoclonal antibody (antibody, V domains shown)
VH: DVQLVESGGGLVQPGGSRKLSCAASGFTFSSFGMHWVRQAPEKGLEWVAYISSGSSTIYYADTVKGRFIISRDNPKNTLFLQMTSLRSEDTAMYYCARKYEGYAMDYWGQGTSVTVSS
VL: DIKMTQSPSSMYASLGERVTITCKASQDINSYLSWFQQKPGKSPKTLIYRANRLVDGVPSRFSGSGSGQDYSLTISSLEYEDMGIYSCLQYDEFPLTFGAGTKLELK
notes: Tested as hybridoma supernatant; also called IL13Rα2_143A; clone 143A

Biological target: T1, human IL13Rα2 (interleukin-13 receptor …)
Assay: flow cytometry of hybridoma supernatants on IL13Rα2-transfected 300.19 cells; specificity further validated on IL13Rα2-transfected COS cells and U251 cells

Binding result, binds:
B1, B2, B3, B4
